Source: paper PMC3602430, “Identification of a Missing Link in the Evolution of an Enzyme into a Transcriptional Regulator” (PLoS ONE, 2013)
Values belong to the molecule of their own block, whether it stands above or below them.

Key:
[1] = biological target: T1, BzdR (CBzdR, C-terminal effector-binding domain); experiment: intrinsic protein fluorescence titration, one-site model; set-up: species or system Azoarcus sp. CIB
T1 construct: His6-CBzdR, residues 131–298

[2] = biological target: NBzdR, N-terminal DNA-binding domain of BzdR (Azoarcus sp. CIB); experiment: AUC; sedimentation equilibrium of the purified proteins in solution, data fitted to dimer and monomer species; sedimentation velocity showed single species (1.8 and 2.3 S); conditions not shown
[3] = biological target: NBzdRL, N-terminal domain of BzdR fused to its linker region (Azoarcus sp. CIB); experiment: as above
[4] = biological target: Q1 chimera (NBzdRL fused to E. coli shikimate kinase I) (Azoarcus sp. CIB | E. coli) (UniProt P0A6D7); experiment: AUC; sedimentation velocity of purified His6-tagged proteins, c(s) distribution; s-value did not change significantly over 1-30 µM protein
[5] = substrate: O=C(O)C1=C[C@@H](O)[C@@H](O)[C@H](O)C1; experiment: coupled pyruvate kinase/lactate dehydrogenase shikimate kinase assay (Km); format: biochemical, Escherichia coli; settings: Mg2+, ATP

Molecule: CC(C)(COP(=O)(O)OP(=O)(O)OC[C@H]1O[C@@H](n2cnc3c(N)ncnc32)[C@H](O)[C@@H]1OP(=O)(O)O)[C@@H](O)C(=O)NCCC(=O)NCCSC(=O)c1ccccc1 [benzoyl-CoA]
Kd [1]: 203 ± 35 µM

Molecule: Q1 chimera (NBzdRL fused to E. coli shikimate kinase I) (from UniProt P0A6D7 1-173)
stoichiometry N [4]: 2

B1: shikimate kinase I (SKI) (Escherichia coli K-12) (protein)
chain: AEKRNIFLVGPMGAGKSTIGRQLAQQLNMEFYDSDQEIEKRTGADVGWVFDLEGEEGFRDREEKVINELTEKQGIVLATGGGSVKSRETRNRLSARGVVVYLETTIEKQLARTQRDKKRPLLHVETPPREVLEALANERNPLYEEIADVTIRTDDQSAKVVANQIIHMLESN
notes: His6-SKI
Km [5]: 400 µM

The next lines start with the values.

stoichiometry N [2]: 2
Molecule: NBzdR, N-terminal DNA-binding domain of BzdR (domain or fragment)

stoichiometry N [3]: 2
Molecule: NBzdRL, N-terminal domain of BzdR fused to its linker region (domain or fragment)
